Results taken from PMC4433741.

What was measured:
Experiment in all cases: SPR
[1] = biological target: human neonatal Fc receptor (FcRn), His-tagged (human) (UniProt P55899)
[2] = biological target: human FcγRIIIa, His-tagged (human) (UniProt P08637)
[3] = biological target: neonatal Fc receptor (FcRn), soluble, His-tagged (UniProt P55899); conditions: pH 6.0; Running buffer not stated; Table 1 labels the measurement pH 6.0

UniProt P08637, sequence (P08637 17-208): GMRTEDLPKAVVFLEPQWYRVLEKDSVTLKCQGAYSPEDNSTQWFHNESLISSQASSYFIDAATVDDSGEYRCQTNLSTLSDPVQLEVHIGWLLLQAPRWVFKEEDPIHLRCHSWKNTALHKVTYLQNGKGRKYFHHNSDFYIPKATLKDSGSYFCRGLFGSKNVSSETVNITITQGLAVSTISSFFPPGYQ

Row | koff [1] | kon [1] | Kd [2] | koff [2] | Kon [3] | koff [3] | Substance
1 | 0.0558 s⁻¹ | 223000 M⁻¹ s⁻¹ | 1010 nM | 0.1 s⁻¹ |  |  | VRC01-LS (antibody)
2 |  |  | 1300 nM | 0.105 s⁻¹ |  |  | VRC01 (the wild type) (antibody)
3 |  |  | 4500 nM | 0.187 s⁻¹ |  |  | VRC01-IHH (non-FcRn-binding mutant) (antibody)
4 |  |  |  |  | 94000 M⁻¹ s⁻¹ | 0.279 s⁻¹ | VRC01 (wild-type Fc) IgG1
